Laboratory results published in patent US20150196651A1 (published 2015).
Numbered stars: 1 amine (or outer) side, 2 acyl side, 3 side chain; on linkers, the order of the positions; unused ones are H or OH. Square brackets hold non-standard residues; d marks the D form. Side chains are listed from the residue outwards. Ends that are not written are not given here. * marks the point of attachment. γGlu = O=C(O)[C@H](CCC(=O)[*:2])N[*:1]; Palmitoyl = CCCCCCCCCCCCCCCC(=O)*; Myristoyl = CCCCCCCCCCCCCC(=O)*; NMeA = CN[C@@H](C)C(=O)O

T1: human PrRP receptor GPR10 (human, UniProt P49683 1-370)
T1 construct: whole, on cells; also called GPR10 human receptor transfected in CHO cells; human GPR10 receptor
T1 sequence (looked up): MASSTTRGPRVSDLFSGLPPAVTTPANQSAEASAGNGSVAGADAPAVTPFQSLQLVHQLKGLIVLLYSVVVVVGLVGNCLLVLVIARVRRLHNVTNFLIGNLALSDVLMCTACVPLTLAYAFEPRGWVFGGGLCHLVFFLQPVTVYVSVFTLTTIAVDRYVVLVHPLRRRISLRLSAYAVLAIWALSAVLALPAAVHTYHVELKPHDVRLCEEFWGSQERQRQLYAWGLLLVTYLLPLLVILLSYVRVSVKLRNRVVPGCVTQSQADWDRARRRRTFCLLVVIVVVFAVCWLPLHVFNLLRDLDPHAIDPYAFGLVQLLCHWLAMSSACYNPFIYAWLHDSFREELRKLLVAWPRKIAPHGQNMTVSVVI

T2: rat PrRP receptor in RC-4B/C cells (rat, UniProt Q64121 1-370)
T2 construct: whole, on cells; endogenous receptor of RC-4B/C cells (ATCC); also called rat receptor; GPR10 receptor expressed in rat hypophyseal cells
T2 sequence (looked up): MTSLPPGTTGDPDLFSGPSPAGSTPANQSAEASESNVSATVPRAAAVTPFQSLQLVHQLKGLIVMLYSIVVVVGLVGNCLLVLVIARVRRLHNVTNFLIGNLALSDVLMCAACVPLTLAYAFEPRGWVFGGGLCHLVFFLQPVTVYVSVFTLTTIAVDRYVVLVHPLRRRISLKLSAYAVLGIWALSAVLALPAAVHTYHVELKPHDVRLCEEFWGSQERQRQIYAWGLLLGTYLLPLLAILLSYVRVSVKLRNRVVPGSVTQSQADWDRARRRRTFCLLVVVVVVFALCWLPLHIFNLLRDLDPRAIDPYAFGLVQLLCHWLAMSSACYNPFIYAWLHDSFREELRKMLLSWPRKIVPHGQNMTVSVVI


What was measured:
[1] = molecular target: T1, human PrRP receptor GPR10; assay: competition with 125I-human PrRP31, CHO cells with human GPR10
Protocol: CHO cells transfected with human PrRP receptor GPR10 (Perkin Elmer, USA) were grown on 24-well plates coated with polyethyleneimine. […] The following agents were used for the experiment: binding buffer (25 mmol.1⁻¹ Tris, pH 7.4; 118 mmol.1⁻¹ NaCl, 10 mmol.1⁻¹ MgCl₂, 1 mmol.1⁻¹ CaCl₂, 5.5 mmol.1⁻¹ glucose, 0.5 mg/ml BSA), unlabeled analogs of PrRP (i.e. the analog being tested) at a final concentration between 10⁻¹¹ to 10⁻⁴ mol.1⁻¹, and radiolabeled human ¹²⁵1-PrRP31 at a final concentration of 5×10⁻¹¹ mol.1⁻¹.
(§1) Plates were incubated for 60 minutes at room temperature. After incubation, the cells were solubilized in 0.1 mol/l solution of NaOH, and the radioactivity bound to the cells was counted using a γ-counter. The experiments were performed in duplicate, and repeated at least three times.

[2] = molecular target: T2, rat PrRP receptor in RC-4B/C cells; assay: competition with 125I-rat PrRP31, RC-4B/C cells
Protocol: The rat pituitary cell line RC-4B/C (ATCC, Manassas, USA) was grown on 24-well plates which had their bottom coated with polyethyleneimine. The cells were grown to the optimal density of 300-450 thousand cells per well.
as §1

% of PrRP31 [1] | Ki [1] | % of PrRP31 [2] | Ki [2] | Binder
185% | 2.1 nM | 1070% | 0.46 nM | Myristoyl-TPDINPAWY[NMeA]SRGIRPVGRF-NH2 (SMILES CCCCCCCCCCCCCC(=O)N[C@H](C(=O)N1CCC[C@H]1C(=O)N[C@@H](CC(=O)O)C(=O)N[C@H](C(=O)N[C@@H](CC(N)=O)C(=O)N1CCC[C@H]1C(=O)N[C@@H](C)C(=O)N[C@@H](Cc1c[nH]c2ccccc12)C(=O)N[C@@H](Cc1ccc(O)cc1)C(=O)N(C)[C@@H](C)C(=O)N[C@@H](CO)C(=O)N[C@@H](CCCNC(=N)N)C(=O)NCC(=O)N[C@H](C(=O)N[C@@H](CCCNC(=N)N)C(=O)N1CCC[C@H]1C(=O)N[C@H](C(=O)NCC(=O)N[C@@H](CCCNC(=N)N)C(=O)N[C@@H](Cc1ccccc1)C(N)=O)C(C)C)[C@@H](C)CC)[C@@H](C)CC)[C@@H](C)O) [analog no. 30]
65% | 5.95 nM | 57% | 4.23 nM | SRTHRHSMEIK([γGlu-Palmitoyl])TPDINPAWYASRGIRPVGRF-NH2 (also called compound 52) [analog no. 52]
57% | – | 119% | 0.5 nM | SRTHRHSMEIRTPDINPAWYASRGIRPVGRF ((N-palm)γ-E at the N-terminus (palmitoyl through gamma-glutamic acid); C-terminal amide) [analog no. 54]
103% | 3.79 nM | 575% | 0.41 nM | SETHRHSMEIKTPDINPAWYASRGIRPVGRF (K(N-POE(N-palm)) at residue 11; C-terminal amide) [analog no. 58]
86% | – | 207% | 2.38 nM | SRTHRHSMEIRTPDINPAWYASRGIRPVGRF-NH2 (synthetic peptide) [Human PrRP31]
83% | – | 1030% | 0.48 nM | Myristoyl-SRTHRHSMEIRTPDINPAWYASRGIRPVGRF-NH2 (SMILES CCCCCCCCCCCCCC(=O)N[C@@H](CO)C(=O)N[C@@H](CCCNC(=N)N)C(=O)N[C@H](C(=O)N[C@@H](Cc1c[nH]cn1)C(=O)N[C@@H](CCCNC(=N)N)C(=O)N[C@@H](Cc1c[nH]cn1)C(=O)N[C@@H](CO)C(=O)N[C@@H](CCSC)C(=O)N[C@@H](CCC(=O)O)C(=O)N[C@H](C(=O)N[C@@H](CCCNC(=N)N)C(=O)N[C@H](C(=O)N1CCC[C@H]1C(=O)N[C@@H](CC(=O)O)C(=O)N[C@H](C(=O)N[C@@H](CC(N)=O)C(=O)N1CCC[C@H]1C(=O)N[C@@H](C)C(=O)N[C@@H](Cc1c[nH]c2ccccc12)C(=O)N[C@@H](Cc1ccc(O)cc1)C(=O)N[C@@H](C)C(=O)N[C@@H](CO)C(=O)N[C@@H](CCCNC(=N)N)C(=O)NCC(=O)N[C@H](C(=O)N[C@@H](CCCNC(=N)N)C(=O)N1CCC[C@H]1C(=O)N[C@H](C(=O)NCC(=O)N[C@@H](CCCNC(=N)N)C(=O)N[C@@H](Cc1ccccc1)C(N)=O)C(C)C)[C@@H](C)CC)[C@@H](C)CC)[C@@H](C)O)[C@@H](C)CC)[C@@H](C)O) [analog no. 42]
45% | 8.72 nM | 10% | 49.4 nM | TPDINPAWY[NMeA]SRGIRPVGRF-NH2 (N-terminus assumed; SMILES CC[C@H](C)[C@H](NC(=O)CNC(=O)[C@H](CCCNC(=N)N)NC(=O)[C@H](CO)NC(=O)[C@H](C)N(C)C(=O)[C@H](Cc1ccc(O)cc1)NC(=O)[C@H](Cc1c[nH]c2ccccc12)NC(=O)[C@H](C)NC(=O)[C@@H]1CCCN1C(=O)[C@H](CC(N)=O)NC(=O)[C@@H](NC(=O)[C@H](CC(=O)O)NC(=O)[C@@H]1CCCN1C(=O)[C@@H](N)[C@@H](C)O)[C@@H](C)CC)C(=O)N[C@@H](CCCNC(=N)N)C(=O)N1CCC[C@H]1C(=O)N[C@H](C(=O)NCC(=O)N[C@@H](CCCNC(=N)N)C(=O)N[C@@H](Cc1ccccc1)C(N)=O)C(C)C) [analog no. 29]
70% | 5.56 nM | 143% | 3.44 nM | TPDINPAWYTGRGIRPVGRF-NH2 (synthetic peptide) [Rat PrRP20]
225% | 1.73 nM | 230% | 2.14 nM | TPDINPAWYASRPFRPVGRF-NH2 [analog no. 33]
133% | 2.93 nM | 632% | 0.78 nM | Myristoyl-TPDINPAWYTGRGIRPVGRF-NH2 (SMILES CCCCCCCCCCCCCC(=O)N[C@H](C(=O)N1CCC[C@H]1C(=O)N[C@@H](CC(=O)O)C(=O)N[C@H](C(=O)N[C@@H](CC(N)=O)C(=O)N1CCC[C@H]1C(=O)N[C@@H](C)C(=O)N[C@@H](Cc1c[nH]c2ccccc12)C(=O)N[C@@H](Cc1ccc(O)cc1)C(=O)N[C@H](C(=O)NCC(=O)N[C@@H](CCCNC(=N)N)C(=O)NCC(=O)N[C@H](C(=O)N[C@@H](CCCNC(=N)N)C(=O)N1CCC[C@H]1C(=O)N[C@H](C(=O)NCC(=O)N[C@@H](CCCNC(=N)N)C(=O)N[C@@H](Cc1ccccc1)C(N)=O)C(C)C)[C@@H](C)CC)[C@@H](C)O)[C@@H](C)CC)[C@@H](C)O) [analog no. 1]
46% | 8.47 nM | 68% | 7.21 nM | Myristoyl-TPDINPAWYTGRGARPFGRF-NH2 (SMILES CCCCCCCCCCCCCC(=O)N[C@H](C(=O)N1CCC[C@H]1C(=O)N[C@@H](CC(=O)O)C(=O)N[C@H](C(=O)N[C@@H](CC(N)=O)C(=O)N1CCC[C@H]1C(=O)N[C@@H](C)C(=O)N[C@@H](Cc1c[nH]c2ccccc12)C(=O)N[C@@H](Cc1ccc(O)cc1)C(=O)N[C@H](C(=O)NCC(=O)N[C@@H](CCCNC(=N)N)C(=O)NCC(=O)N[C@@H](C)C(=O)N[C@@H](CCCNC(=N)N)C(=O)N1CCC[C@H]1C(=O)N[C@@H](Cc1ccccc1)C(=O)NCC(=O)N[C@@H](CCCNC(=N)N)C(=O)N[C@@H](Cc1ccccc1)C(N)=O)[C@@H](C)O)[C@@H](C)CC)[C@@H](C)O) [analog no. 32]
671% | 0.58 nM | 587% | 0.84 nM | Myristoyl-TPDINPAWYASRPFRPVGRF-NH2 (SMILES CCCCCCCCCCCCCC(=O)N[C@H](C(=O)N1CCC[C@H]1C(=O)N[C@@H](CC(=O)O)C(=O)N[C@H](C(=O)N[C@@H](CC(N)=O)C(=O)N1CCC[C@H]1C(=O)N[C@@H](C)C(=O)N[C@@H](Cc1c[nH]c2ccccc12)C(=O)N[C@@H](Cc1ccc(O)cc1)C(=O)N[C@@H](C)C(=O)N[C@@H](CO)C(=O)N[C@@H](CCCNC(=N)N)C(=O)N1CCC[C@H]1C(=O)N[C@@H](Cc1ccccc1)C(=O)N[C@@H](CCCNC(=N)N)C(=O)N1CCC[C@H]1C(=O)N[C@H](C(=O)NCC(=O)N[C@@H](CCCNC(=N)N)C(=O)N[C@@H](Cc1ccccc1)C(N)=O)C(C)C)[C@@H](C)CC)[C@@H](C)O) [analog no. 34]
0.7% | 583 nM | 0.8% | 655 nM | TPDINPAWYTGRGARPFGRF-NH2 [analog no. 31]
